Data published in publication PMC9963277 (Proceedings of the National Academy of Sciences of the …, 2023).

B1: E. coli ClpX (containing a neutral K408E mutation) (enzyme)
chain: not shown
B2: E. coli ClpP (enzyme)
chain: not shown
B3: E. coli SspB (natural protein)
chain: MDLSQLTPRRPYLLRAFYEWLLDNQLTPHLVVDVTLPGVQVPMEYARDGQIVLNIAPRAVGNLELANDEVRFNARFGGIPRQVSVPLAAVLAIYARENGAGTMFEPEAAYDEDTSIMNDEEASADNETVMSVIDGDKPDHDDDTHPDDEPPQPPRGGRPALRVVK

Experiments:
[1] = molecular target: the molecule itself; assay: cryo-EM structure
[2] = molecular target: B1; assay: cryo-EM structure

binding result [2] | Binder | binding result [1]
 | B1 | binds
binds | B2 | binds
binds | B3 | 
